US20170226211A1 (AGENCY OR SCIENCE TECHNOLOGY AND RESEARCH, published 2017)

What was measured:
human CTLA-4 [1] = target: T1, human CTLA-4 (human, UniProt P16410 36-161, limits assumed); experiment: blocking ELISA: antibody pre-incubated with human CTLA-4, binding of CTLA-4 to coated CD80 detected
T1 construct: Construct not described (no limits, tag or fusion partner stated); also called huCTLA-4; CD152

human CTLA-4 [2] = target: T1, human CTLA-4; experiment: cell-based or functional assay
mouse CTLA-4 [3] = target: T2, mouse CTLA-4 (mouse, UniProt P09793 36-161, limits assumed); experiment: avidity ELISA, mouse CTLA-4 coated, antibody titrated
T2 construct: construct not described; also called murine CTLA-4; the mouse protein
Description: (§1) The response curve was plotted (see FIG. 10), and EC50 was calculated.

mouse CTLA-4 [4] = target: T2, mouse CTLA-4; experiment: affinity ELISA, antibody coated, mouse CTLA-4 titrated; 2C8 IgG1 with LALA mutation (L234A, L235A)
Source text: (§2) The “LALA” mutation refers to mutation of leucine residues at positions 234 and […] of the of the Fc region to alanine (i.e. L234A, L235A); this mutation is known to weaken interaction between Fc and Fc-γR, and therefore to prevent ADCC activity (see e.g. Hezareh et al., J Virol (2001) 75(24):12161-12168).

[5] = target: T3, Human CD28 conjugated to human Fc (human, UniProt P10747 19-152); experiment: ELISA, human CD28-human Fc coated, antibody titrated
T3 construct: not shown: human Fc

human CTLA-4 [6] = target: T1, human CTLA-4; experiment: avidity ELISA, human CTLA-4 coated, antibody titrated
Description: as §1

human CTLA-4 [7] = target: T1, human CTLA-4; experiment: affinity ELISA, antibody coated, human CTLA-4 titrated
human CTLA-4 [8] = target: T1, human CTLA-4; experiment: SPR, antibody immobilised on chip, human CTLA-4 flowed over
mouse CTLA-4 [9] = target: T2, mouse CTLA-4; experiment: affinity ELISA, antibody coated, mouse CTLA-4 titrated; 2C8 IgG1
Source text: as §2

Cynomolgus/Rhesus CTLA-4 = target: T4, Cynomolgus/Rhesus CTLA-4 (cynomolgus/rhesus); experiment: ELISA, antibody coated, Cynomolgus/Rhesus CTLA-4 titrated
T4 construct: Printed as one protein 'Cynomolgus/Rhesus CTLA-4'

[10] = target: T5, human CTLA-4 expressed on HEK-293.6E cells (human, UniProt P16410 36-223); experiment: flow cytometry on HEK-293.6E cells transfected with human CTLA-4
T5 construct: whole, on cells; also called cell surface-expressed human CTLA-4

[11] = target: T6, mouse CTLA-4 expressed on HEK-293.6E cells (mouse, UniProt P09793 36-223); experiment: flow cytometry on HEK-293.6E cells transfected with mouse CTLA-4
T6 construct: whole, on cells; also called cell surface-expressed mouse CTLA-4

human CTLA-4 [12] = target: T1, human CTLA-4; experiment: ELISA, human CTLA-4 coated, Fab titrated
[13] = target: T3, Human CD28 conjugated to human Fc; experiment: ELISA, human CD28-Fc coated, antibody titrated
mouse CTLA-4 [14] = target: T2, mouse CTLA-4; experiment: affinity ELISA, antibody coated, mouse CTLA-4 titrated; 2C8 IgG4
Source text: as §2

mouse CTLA-4 [15] = target: T2, mouse CTLA-4; experiment: affinity ELISA, antibody coated, mouse CTLA-4 titrated; 2C8_gI IgG1
Source text: as §2

T1 sequence (P16410 36-161 limits assumed): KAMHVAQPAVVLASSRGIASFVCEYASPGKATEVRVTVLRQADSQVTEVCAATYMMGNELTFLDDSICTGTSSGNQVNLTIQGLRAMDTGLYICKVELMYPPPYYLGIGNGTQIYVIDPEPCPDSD
T5 sequence (P16410 36-223): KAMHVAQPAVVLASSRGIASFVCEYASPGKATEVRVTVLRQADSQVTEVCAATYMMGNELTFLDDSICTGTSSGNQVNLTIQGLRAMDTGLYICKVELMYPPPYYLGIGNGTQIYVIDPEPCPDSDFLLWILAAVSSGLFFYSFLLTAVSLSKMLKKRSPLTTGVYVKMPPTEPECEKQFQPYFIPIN

B1: L3D10 (commercial mouse anti-human CTLA-4 IgG1) (antibody, V domains shown)
VH: QVQLKESGPGLVAPSQSLSITCTVSGFSLTSYGLSWVRQPPGKGLEWLGVIWYDGNTNFHSALISRLTISKDNSKSQVFLELNSLQTDDTATYYCAKTEGHYYGSNYGYYALDYWGQGTSVTVSS
VL: DIQMTQSPASLSVSVGETVTITCRASENIYSNLAWYQQKQGKSPQLLVYAATNLADGVPSRFSGSGSGTQYSLKINSLQSEDFGTYFCQHLWGTPYTFGGGTKLEIK
- IC50 (read off the curve) (human CTLA-4 [1]): ~1 nM

B2: 2C8 IgG1 with LALA mutation (antibody, V domains shown)
VH: QVQLQQSGPGLVKPSQTLSLTCAISGDTVSSNTAAWNWIRQSPSRGLEWLGRTYYRSKWYSDYGLSVKSRMTINADTSKNQVSLHLNSVTPEDTAVYYCAREGSGGTLIYWGQGTLVTVSS
VL: DIQLTQSPSSVSASVGDRVTITCRATQGISSWLAWYQQKPGKAPKLLIYAASSLQSGVPSRFSGSGSGTEFTLTISSLQPEDFATYYCQQANTLPLFTFGPGTKVDIK
notes: also called 2C8 with LALA mutation; 2C8 with the mutation
- EC50, T cell reactivation assay (IL-2 secretion by Jurkat T cells) (human CTLA-4 [2]): 0.7 to 1.2 nM
- EC50 (mouse CTLA-4 [3]): 8 nM
- EC50 (mouse CTLA-4 [4]): 5.1 nM

B3: anti-CTLA-4 antibody clone 2C8, human IgG1 (antibody, V domains shown)
VH: QVQLQQSGPGLVKPSQTLSLTCAISGDTVSSNTAAWNWIRQSPSRGLEWLGRTYYRSKWYSDYGLSVKSRMTINADTSKNQVSLHLNSVTPEDTAVYYCAREGSGGTLIYWGQGTLVTVSS
VL: DIQLTQSPSSVSASVGDRVTITCRATQGISSWLAWYQQKPGKAPKLLIYAASSLQSGVPSRFSGSGSGTEFTLTISSLQPEDFATYYCQQANTLPLFTFGPGTKVDIK
notes: also called 2C8 IgG; 2C8 IgG1
- binding result [5]: no binding
- EC50 (human CTLA-4 [6]): 0.0636 nM
- EC50 (mouse CTLA-4 [3]): 4.9 nM
- EC50 (human CTLA-4 [7]): 5 nM
- Kd (human CTLA-4 [8]): 9.6 nM
- EC50 (mouse CTLA-4 [9]): 9.6 nM
- EC50 (read off the curve) (Cynomolgus/Rhesus CTLA-4): ~0.3 nM
- EC50 (read off the curve) [10]: ~4 nM
- EC50 (read off the curve) [11]: ~6 nM

B4: anti-CTLA-4 antibody clone 2C8, Fab (Fab, V domains shown)
VH: QVQLQQSGPGLVKPSQTLSLTCAISGDTVSSNTAAWNWIRQSPSRGLEWLGRTYYRSKWYSDYGLSVKSRMTINADTSKNQVSLHLNSVTPEDTAVYYCAREGSGGTLIYWGQGTLVTVSS
VL: DIQLTQSPSSVSASVGDRVTITCRATQGISSWLAWYQQKPGKAPKLLIYAASSLQSGVPSRFSGSGSGTEFTLTISSLQPEDFATYYCQQANTLPLFTFGPGTKVDIK
notes: Fab from a human antibody phage display library
- EC50 (read off the curve) (human CTLA-4 [12]): ~1 nM
- binding result [13]: no binding (tested: 1000 nM)
- IC50 (read off the curve) (human CTLA-4 [1]): ~5 nM

B5: 2C8 IgG4 (antibody, V domains shown)
VH: QVQLQQSGPGLVKPSQTLSLTCAISGDTVSSNTAAWNWIRQSPSRGLEWLGRTYYRSKWYSDYGLSVKSRMTINADTSKNQVSLHLNSVTPEDTAVYYCAREGSGGTLIYWGQGTLVTVSS
VL: DIQLTQSPSSVSASVGDRVTITCRATQGISSWLAWYQQKPGKAPKLLIYAASSLQSGVPSRFSGSGSGTEFTLTISSLQPEDFATYYCQQANTLPLFTFGPGTKVDIK
notes: IgG4 format; also called IgG4 version of 2C8
- EC50 (mouse CTLA-4 [3]): 20.9 nM
- EC50 (mouse CTLA-4 [14]): 7 nM

B6: anti-CTLA-4 antibody clone 2C8_gI, IgG1 (antibody, V domains shown)
VH: QVQLQQSGPGLVKPSQTLSLTCAISGDSVSSNTAAWNWIRQSPSRGLEWLGRTYYRSKWYSDYGLSVKSRITINPDTSKNQFSLQLNSVTPEDTAVYYCAREGSGGTLIYWGQGTLVTVSS
VL: DIQMTQSPSSVSASVGDRVTITCRATQGISSWLAWYQQKPGKAPKLLIYAASSLQSGVPSRFSGSGSGTDFTLTISSLQPEDFATYYCQQANTLPLFTFGPGTKVDIK
notes: IgG1; also called germline version of the antibody
- EC50 (mouse CTLA-4 [3]): 77.1 nM
- EC50 (mouse CTLA-4 [15]): 23.5 nM
